In patent US20210087281A1 (AGOMAB THERAPEUTICS, published 2021):

Legend:
[1] = biological target: T1, mouse MET-Fc (R&D Systems) (mouse, UniProt P16056 25-929, limits assumed); experiment: competition ELISA, mMET-Fc in solid phase, competitor 0.3 nM biotinylated mHGF
T1 construct: bought chimeric protein; also called mMET; not shown: Fc part
Method in brief: (§1)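 N-terminally biotinylated HGF (NHS-LC-biotin); mAbs titrated 0-120 nM against coated MET-Fc; read-out IC₅₀ (50% competition) and IMAX (max % competition at saturation).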

[2] = biological target: T2, human MET-Fc (R&D Systems) (human, UniProt P08581 25-932); experiment: competition ELISA, hMET-Fc in solid phase, competitor 0.3 nM biotinylated hHGF
T2 construct: extracellular domain; bought chimeric protein; also called hMET; not shown: Fc portion of human IgG1
Method in brief: as §1

[3] = biological target: T3, native mouse MET on living cells (mouse, UniProt P16056 25-1379); experiment: cell-based or functional assay
[4] = biological target: T4, native human MET on living cells (human, UniProt P08581 25-1390); experiment: cell-based or functional assay
[5] = biological target: T3, native mouse MET on living cells; experiment: cell-based or functional assay; remark: listed apart in the source
[6] = biological target: T4, native human MET on living cells; experiment: cell-based or functional assay; remark: listed apart in the source
mouse MET ECD = biological target: T5, mouse MET ECD (mouse, UniProt P16056 25-931); experiment: ELISA, MET ECD in solid phase, mAb 0-20 nM
T5 construct: range 1-931; recombinant ECD made by the applicants; the stated range begins at residue 1; also called mMET; mMET ECD
Method in brief: (§2)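 Chimeric llama-human IgG1 antibodies were expressed by transient transfection of mammalian cells and purified by protein A affinity chromatography. Their binding was then measured by ELISA against immobilized MET ECD, with antibody titrated in solution.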

human MET ECD = biological target: T6, human MET ECD (human, UniProt P08581 25-932); experiment: ELISA, MET ECD in solid phase, mAb 0-20 nM
T6 construct: range 1-932; recombinant ECD made by the applicants; the stated range begins at residue 1, so it includes the signal peptide of the entry; also called hMET; hMET ECD
Method in brief: as §2

[7] = biological target: T3, native mouse MET on living cells; experiment: cell-based or functional assay; remark: listed apart in the source
[8] = biological target: T4, native human MET on living cells; experiment: cell-based or functional assay; remark: listed apart in the source
[9] = biological target: human MET ECD mutant J (mutations 6, 7) (human) (UniProt P08581); experiment: ELISA, MET ECD in solid phase, mAb 0-50 nM
[10] = biological target: human MET ECD mutant I (mutations 6, 7, 8) (human) (UniProt P08581); experiment: ELISA, MET ECD in solid phase, mAb 0-50 nM
[11] = biological target: T3, native mouse MET on living cells; experiment: cell-based or functional assay; remark: listed apart in the source
[12] = biological target: T4, native human MET on living cells; experiment: cell-based or functional assay; remark: listed apart in the source
[13] = biological target: T3, native mouse MET on living cells; experiment: flow cytometry, MLP29 cells
Method in brief: (§3)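 Chimeric anti-MET antibodies were incubated with living cells expressing native MET, human on A549 and mouse on MLP29. Binding was detected by flow cytometry with phycoerythrin-conjugated anti-human IgG1. Commercial anti-MET antibodies with matching PE secondaries served as positive controls.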

[14] = biological target: T4, native human MET on living cells; experiment: flow cytometry, A549 cells
Method in brief: as §3

T4 sequence (P08581 25-1390): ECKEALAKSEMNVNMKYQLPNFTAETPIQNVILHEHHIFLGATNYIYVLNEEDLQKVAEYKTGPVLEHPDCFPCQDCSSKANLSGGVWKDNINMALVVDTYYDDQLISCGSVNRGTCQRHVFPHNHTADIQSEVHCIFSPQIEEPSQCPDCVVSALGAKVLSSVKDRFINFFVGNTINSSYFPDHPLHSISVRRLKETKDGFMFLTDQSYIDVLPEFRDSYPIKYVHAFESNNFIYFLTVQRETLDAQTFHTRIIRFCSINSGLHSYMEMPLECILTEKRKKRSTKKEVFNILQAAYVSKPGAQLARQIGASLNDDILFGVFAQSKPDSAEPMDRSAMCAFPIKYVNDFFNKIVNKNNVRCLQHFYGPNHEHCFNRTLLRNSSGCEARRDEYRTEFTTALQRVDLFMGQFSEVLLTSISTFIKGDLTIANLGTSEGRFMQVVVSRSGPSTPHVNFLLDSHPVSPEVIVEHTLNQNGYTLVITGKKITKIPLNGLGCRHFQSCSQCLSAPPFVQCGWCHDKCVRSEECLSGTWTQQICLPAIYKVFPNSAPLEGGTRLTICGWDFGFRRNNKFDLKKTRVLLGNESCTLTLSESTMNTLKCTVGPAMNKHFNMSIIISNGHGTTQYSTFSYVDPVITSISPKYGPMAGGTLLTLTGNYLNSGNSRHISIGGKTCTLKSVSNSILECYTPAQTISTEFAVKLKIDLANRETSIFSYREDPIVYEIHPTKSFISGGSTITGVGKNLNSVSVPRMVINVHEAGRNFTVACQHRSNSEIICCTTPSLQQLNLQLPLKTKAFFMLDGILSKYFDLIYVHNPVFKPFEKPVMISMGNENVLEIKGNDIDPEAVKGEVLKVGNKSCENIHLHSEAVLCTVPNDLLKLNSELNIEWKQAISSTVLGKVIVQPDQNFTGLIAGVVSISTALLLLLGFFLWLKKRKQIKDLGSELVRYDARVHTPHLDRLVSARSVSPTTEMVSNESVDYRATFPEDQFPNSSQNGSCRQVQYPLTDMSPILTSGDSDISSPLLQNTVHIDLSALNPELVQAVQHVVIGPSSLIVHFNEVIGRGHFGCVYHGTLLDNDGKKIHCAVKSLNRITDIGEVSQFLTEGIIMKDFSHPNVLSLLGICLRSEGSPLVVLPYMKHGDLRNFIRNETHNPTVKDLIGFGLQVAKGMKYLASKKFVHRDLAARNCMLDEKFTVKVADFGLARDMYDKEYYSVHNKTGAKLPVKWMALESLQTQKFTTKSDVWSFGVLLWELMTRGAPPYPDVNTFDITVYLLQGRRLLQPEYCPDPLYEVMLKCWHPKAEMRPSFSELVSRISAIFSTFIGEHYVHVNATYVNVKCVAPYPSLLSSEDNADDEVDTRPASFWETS
T6 sequence (P08581 25-932 limits assumed, form in doubt): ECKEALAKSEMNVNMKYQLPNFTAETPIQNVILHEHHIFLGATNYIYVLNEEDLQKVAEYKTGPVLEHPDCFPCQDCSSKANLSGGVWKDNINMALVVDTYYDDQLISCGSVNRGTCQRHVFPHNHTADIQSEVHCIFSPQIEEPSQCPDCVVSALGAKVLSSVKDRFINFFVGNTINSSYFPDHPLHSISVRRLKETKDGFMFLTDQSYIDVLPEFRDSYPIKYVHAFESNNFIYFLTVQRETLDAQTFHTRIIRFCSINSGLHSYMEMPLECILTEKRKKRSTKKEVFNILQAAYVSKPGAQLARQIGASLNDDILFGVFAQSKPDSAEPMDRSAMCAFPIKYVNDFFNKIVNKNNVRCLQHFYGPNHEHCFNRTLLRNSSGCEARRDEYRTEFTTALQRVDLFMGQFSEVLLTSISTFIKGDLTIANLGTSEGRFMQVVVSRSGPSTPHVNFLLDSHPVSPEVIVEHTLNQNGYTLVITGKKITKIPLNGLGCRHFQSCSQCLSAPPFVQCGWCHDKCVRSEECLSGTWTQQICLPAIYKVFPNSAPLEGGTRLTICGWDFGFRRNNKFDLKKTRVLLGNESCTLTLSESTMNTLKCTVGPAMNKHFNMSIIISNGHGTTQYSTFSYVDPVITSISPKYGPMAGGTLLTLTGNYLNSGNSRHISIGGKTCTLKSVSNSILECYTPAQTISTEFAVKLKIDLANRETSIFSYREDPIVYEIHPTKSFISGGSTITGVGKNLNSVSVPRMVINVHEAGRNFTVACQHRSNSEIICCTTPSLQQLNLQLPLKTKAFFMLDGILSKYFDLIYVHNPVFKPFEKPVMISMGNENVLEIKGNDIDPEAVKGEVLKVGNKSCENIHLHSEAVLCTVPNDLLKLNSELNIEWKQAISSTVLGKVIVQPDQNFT
T2 sequence (P08581 25-932): as the sequence (P08581 25-932 limits assumed, form in doubt) above

B1: 71G3 chimeric llama-human IgG1 mAb (antibody, V domains shown)
VH: QVQLVESGGGLVQPGGSLRVSCAASGFTFSTYYMSWVRQAPGKGLEWVSDIRTDGGTYYADSVKGRFTMSRDNAKNTLYLQMNSLKPEDTALYYCARTRIFPSGYDYWGQGTQVTVSS
VL: QAVVTQEPSLSVSPGGTVTLTCGLSSGSVTTSNYPGWFQQTPGQAPRTLIYNTNSRHSGVPSRFSGSISGNKAALTIMGAQPEDEADYYCSLYPGSTTVFGGGTHLTVL
notes: llama VH on human IgG1 CH1-CH2-CH3, llama VL on human lambda CL
- IC50 [1]: 0.53 nM
- IMAX [1]: 62.9%
- IC50 [2]: 0.49 nM
- IMAX [2]: 63.2%
- scatter score 0-4, MLP29, 0.001 nM [3]: 0 score
- scatter score 0-4, MLP29, 0.004 nM [3]: 0 score
- scatter score 0-4, MLP29, 0.012 nM [3]: 0 score
- scatter score 0-4, MLP29, 0.037 nM [3]: 1 score
- scatter score 0-4, MLP29, 0.111 nM [3]: 2 score
- scatter score 0-4, MLP29, 0.333 nM [3]: 4 score
- scatter score 0-4, MLP29, 1.000 nM [3]: 4 score
- scatter score 0-4, MLP29, 3.000 nM [3]: 4 score
- scatter score 0-4, MLP29, 9.000 nM [3]: 4 score
- scatter score 0-4, HPAF-II, 0.001 nM [4]: 0 score
- scatter score 0-4, HPAF-II, 0.004 nM [4]: 0 score
- scatter score 0-4, HPAF-II, 0.012 nM [4]: 1 score
- scatter score 0-4, HPAF-II, 0.037 nM [4]: 2 score
- scatter score 0-4, HPAF-II, 0.111 nM [4]: 3 score
- scatter score 0-4, HPAF-II, 0.333 nM [4]: 4 score
- scatter score 0-4, HPAF-II, 1.000 nM [4]: 4 score
- scatter score 0-4, HPAF-II, 3.000 nM [4]: 4 score
- scatter score 0-4, HPAF-II, 9.000 nM [4]: 4 score
- protection from staurosporine, viability EC50, MLP29 cells [5]: 4.85 nM
- protection from staurosporine, viability EMAX, MLP29 cells [5]: 62.3%
- protection from staurosporine, viability EC50, MCF10A cells [6]: 5.04 nM
- protection from staurosporine, viability EMAX, MCF10A cells [6]: 65.2%
- EC50 (mouse MET ECD): 0.057 nM
- EMAX (OD450) (mouse MET ECD): 2.98 AU
- EC50 (human MET ECD): 0.067 nM
- EMAX (OD450) (human MET ECD): 2.83 AU
- branches per spheroid, MLP29 cells, 0.5 nM [7]: 24.7 branches
- branches per spheroid, MLP29 cells, 2.5 nM [7]: 34.3 branches
- branches per spheroid, MLP29 cells, 12.5 nM [7]: 29.3 branches
- branches per spheroid, LOC cells, 0.5 nM [8]: 13.7 branches
- branches per spheroid, LOC cells, 2.5 nM [8]: 19 branches
- branches per spheroid, LOC cells, 12.5 nM [8]: 22.3 branches
- % binding (EMAX) compared to WT MET [9]: 91.2 % WT MET ECD
- % binding (EMAX) compared to WT MET [10]: 100 % WT MET ECD
- phospho-MET ELISA EC50, MLP29 cells [11]: 0.37 nM
- phospho-MET ELISA EMAX (% HGF activity), MLP29 cells [11]: 97.8%
- phospho-MET ELISA EC50, A549 cells [12]: 0.41 nM
- phospho-MET ELISA EMAX (% HGF activity), A549 cells [12]: 95.7%
- EC50 [13]: 0.214 nM
- EMAX [13]: 116 % relative to control
- EC50 [14]: 0.296 nM
- EMAX [14]: 117 % relative to control

B2: 76H10 chimeric llama-human IgG1 mAb (antibody, V domains shown)
VH: QLQLVESGGGLVQPGGSLRVSCTASGFTFNTYYMTWVRQAPGKGLEWVSDINSGGGTYYADSVKGRFTISRDNAKNTLYLQMNSLKPEDTALYYCVRVRIWPVGYDYWGQGTQVTVSS
VL: QAVVTQEPSLSVSPGGTVTLTCGLSSGSVTTSNYPGWFQQTPGQAPRTLIYNTNNRHSGVPSRFSGSISGNKAALTITGAQPEDEADYYCSLYTGSYTTVFGGGTHLTVL
notes: as for B1
- IC50 [1]: 2.01 nM
- IMAX [1]: 62.7%
- IC50 [2]: 1.86 nM
- IMAX [2]: 64.2%
- scatter score 0-4, MLP29, 0.001 nM [3]: 0 score
- scatter score 0-4, MLP29, 0.004 nM [3]: 0 score
- scatter score 0-4, MLP29, 0.012 nM [3]: 0 score
- scatter score 0-4, MLP29, 0.037 nM [3]: 0 score
- scatter score 0-4, MLP29, 0.111 nM [3]: 0 score
- scatter score 0-4, MLP29, 0.333 nM [3]: 0 score
- scatter score 0-4, MLP29, 1.000 nM [3]: 1 score
- scatter score 0-4, MLP29, 3.000 nM [3]: 2 score
- scatter score 0-4, MLP29, 9.000 nM [3]: 3 score
- scatter score 0-4, HPAF-II, 0.001 nM [4]: 0 score
- scatter score 0-4, HPAF-II, 0.004 nM [4]: 0 score
- scatter score 0-4, HPAF-II, 0.012 nM [4]: 0 score
- scatter score 0-4, HPAF-II, 0.037 nM [4]: 0 score
- scatter score 0-4, HPAF-II, 0.111 nM [4]: 0 score
- scatter score 0-4, HPAF-II, 0.333 nM [4]: 0 score
- scatter score 0-4, HPAF-II, 1.000 nM [4]: 1 score
- scatter score 0-4, HPAF-II, 3.000 nM [4]: 2 score
- scatter score 0-4, HPAF-II, 9.000 nM [4]: 3 score
- protection from staurosporine, viability EC50, MLP29 cells [5]: > 32 nM
- protection from staurosporine, viability EMAX, MLP29 cells [5]: 27.2%
- protection from staurosporine, viability EC50, MCF10A cells [6]: > 32 nM
- protection from staurosporine, viability EMAX, MCF10A cells [6]: 22.8%
- EC50 (mouse MET ECD): 0.062 nM
- EMAX (OD450) (mouse MET ECD): 2.66 AU
- EC50 (human MET ECD): 0.09 nM
- EMAX (OD450) (human MET ECD): 2.67 AU
- branches per spheroid, MLP29 cells, 0.5 nM [7]: 10.7 branches
- branches per spheroid, MLP29 cells, 2.5 nM [7]: 14.3 branches
- branches per spheroid, MLP29 cells, 12.5 nM [7]: 24.7 branches
- branches per spheroid, LOC cells, 0.5 nM [8]: 7.3 branches
- branches per spheroid, LOC cells, 2.5 nM [8]: 11.7 branches
- branches per spheroid, LOC cells, 12.5 nM [8]: 16.7 branches
- % binding (EMAX) compared to WT MET [9]: 89 % WT MET ECD
- % binding (EMAX) compared to WT MET [10]: 100 % WT MET ECD
- phospho-MET ELISA EC50, MLP29 cells [11]: 2.91 nM
- phospho-MET ELISA EMAX (% HGF activity), MLP29 cells [11]: 64.1%
- phospho-MET ELISA EC50, A549 cells [12]: 1.77 nM
- phospho-MET ELISA EMAX (% HGF activity), A549 cells [12]: 61.2%
- EC50 [13]: 1.6 nM
- EMAX [13]: 124 % relative to control
- EC50 [14]: 2.35 nM
- EMAX [14]: 130 % relative to control
